# Data reported in article PMC8683410 (Translational Psychiatry, 2021).
# Several values for one entry are separate records, joined by “and”; a condition that tells them apart may be missing. Identical values can stand only once.
# T1: His6-tagged human DISC1 C-region (residues 691-836) (human), Q9NRI5
# T1 chain: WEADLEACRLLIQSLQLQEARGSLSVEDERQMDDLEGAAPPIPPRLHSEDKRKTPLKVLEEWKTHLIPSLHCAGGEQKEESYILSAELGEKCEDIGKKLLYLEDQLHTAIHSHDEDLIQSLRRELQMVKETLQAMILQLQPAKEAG
# T2: MBP-His6-fused human DISC1 C-region (residues 691-836) (human), Q9NRI5
# T2 chain: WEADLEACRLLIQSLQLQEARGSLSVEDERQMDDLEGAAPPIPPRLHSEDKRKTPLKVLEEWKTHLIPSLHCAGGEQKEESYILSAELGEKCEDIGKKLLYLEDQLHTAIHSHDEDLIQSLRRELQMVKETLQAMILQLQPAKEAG
# T3: lissencephaly 1 (LIS1) (UniProt P43034 1-410)
# T3 construct: lissencephaly 1 (LIS1); source: E. coli C43 (DE3), purified (Ni2+-NTA, Superdex 200 SEC)
# T3 sequence (looked up): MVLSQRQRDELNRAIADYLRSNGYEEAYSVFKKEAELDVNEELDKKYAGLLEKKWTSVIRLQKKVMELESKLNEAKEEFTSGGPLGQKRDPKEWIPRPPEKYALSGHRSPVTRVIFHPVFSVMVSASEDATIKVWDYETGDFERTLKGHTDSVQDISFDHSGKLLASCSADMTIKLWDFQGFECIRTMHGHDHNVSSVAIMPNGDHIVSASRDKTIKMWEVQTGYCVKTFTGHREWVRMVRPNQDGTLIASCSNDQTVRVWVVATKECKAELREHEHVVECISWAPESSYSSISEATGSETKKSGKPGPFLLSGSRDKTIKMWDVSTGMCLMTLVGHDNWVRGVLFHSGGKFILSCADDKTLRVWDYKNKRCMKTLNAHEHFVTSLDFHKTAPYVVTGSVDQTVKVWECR
# Key:
# [1] = molecular target: T1, His6-tagged human DISC1 C-region …; test: negative-stain transmission electron microscopy; 10 µM protein on carbon-coated copper grids, 1% uranyl acetate; 2D classification and 3D reconstruction (RELION); conditions: remark: other sources report otherwise
# [2] = molecular target: T1, His6-tagged human DISC1 C-region …; test: dynamic light scattering; His6-C-region, 10-90 µM at 37 °C; samples centrifuged at 21,000 x g before measurement; conditions: remark: other sources report otherwise
# [3] = molecular target: T1, His6-tagged human DISC1 C-region …; test: dynamic light scattering; critical concentration of C-region monomers/oligomers in equilibrium with the fibril suspension, taken as the detection limit of the instrument; 1D crystallization model (KF = 1/[C]); conditions: remark: other sources report otherwise
# [4] = molecular target: T1, His6-tagged human DISC1 C-region …; test: ITC; no titration: heat flow of the spontaneous association of the protein solution monitored in the cell (iTC-200, 300 rpm); 10-50 µM at 37 °C, 10 µM at 20-60 °C; dH from the peak area normalised to the protein amount; conditions: remark: other sources report otherwise
# [5] = molecular target: T2, MBP-His6-fused human DISC1 C-region …; test: dynamic light scattering; MBP-tagged C-region in solution at different temperatures (Fig. S1); conditions: remark: other sources report otherwise
# NDE-like 1 (NDEL1) [6] = molecular target: T4, NDE-like 1 (NDEL1) (UniProt Q9GZM8 1-345); test: SPR; freshly prepared MBP-C-region (representing the monomer) amine-coupled to a CM5 chip (250 RU); analytes 0.75-10 µM without regeneration; 25 °C, PBS pH 7.4 (20 mM Na-phosphate, 150 mM NaCl); equilibrium responses fitted with Hill's equation; conditions: both partners purified
# T4 sequence (Q9GZM8 whole entry): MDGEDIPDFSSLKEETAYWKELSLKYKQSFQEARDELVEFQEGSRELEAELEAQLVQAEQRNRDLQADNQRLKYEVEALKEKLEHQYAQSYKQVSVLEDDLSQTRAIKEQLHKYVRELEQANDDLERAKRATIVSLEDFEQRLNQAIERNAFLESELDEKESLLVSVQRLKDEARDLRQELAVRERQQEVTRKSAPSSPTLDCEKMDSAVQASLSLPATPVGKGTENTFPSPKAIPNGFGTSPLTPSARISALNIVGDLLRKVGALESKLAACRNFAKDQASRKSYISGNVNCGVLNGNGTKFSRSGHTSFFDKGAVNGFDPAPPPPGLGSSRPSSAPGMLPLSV
# lissencephaly 1 (LIS1) [7] = molecular target: T3, lissencephaly 1 (LIS1); test: SPR; oligomeric/fibrillar C-region (His-C-region incubated at 4 °C for two weeks, MBP-C-region for two months) amine-coupled to a CM5 chip (250 RU); analytes 0.75-10 µM without regeneration; 25 °C, PBS pH 7.4; equilibrium responses fitted with Hill's equation; apparent affinities; conditions: both partners purified
# NDE-like 1 (NDEL1) [8] = molecular target: T4, NDE-like 1 (NDEL1); test: as above; conditions: both partners purified
# lissencephaly 1 (LIS1) [9] = molecular target: T3, lissencephaly 1 (LIS1); test: SPR; freshly prepared MBP-C-region (representing the monomer) amine-coupled to a CM5 chip (250 RU); analytes 0.75-10 µM without regeneration; 25 °C, PBS pH 7.4 (20 mM Na-phosphate, 150 mM NaCl); equilibrium responses fitted with Hill's equation; conditions: both partners purified
# NDE-like 1 (NDEL1) [10] = molecular target: T4, NDE-like 1 (NDEL1); test: as above; conditions: both partners purified; remark: listed apart in the source
binder,measurement,setting,value
"His6-tagged human DISC1 C-region (residues 691-836), Q9NRI5 691-836 (domain or fragment) WEADLEACRLLIQSLQLQEARGSLSVEDERQMDDLEGAAPPIPPRLHSEDKRKTPLKVLEEWKTHLIPSLHCAGGEQKEESYILSAELGEKCEDIGKKLLYLEDQLHTAIHSHDEDLIQSLRRELQMVKETLQAMILQLQPAKEAG",stoichiometry N,[1],4 and 5 and 6
same,stoichiometry N,[2],4
same,critical concentration (1/KF of fibril formation),[3],750 nM
same,dH,[4],-298 kJ/mol
"MBP-His6-fused human DISC1 C-region (residues 691-836), Q9NRI5 691-836 (domain or fragment) WEADLEACRLLIQSLQLQEARGSLSVEDERQMDDLEGAAPPIPPRLHSEDKRKTPLKVLEEWKTHLIPSLHCAGGEQKEESYILSAELGEKCEDIGKKLLYLEDQLHTAIHSHDEDLIQSLRRELQMVKETLQAMILQLQPAKEAG",stoichiometry N,[5],4
"MBP-His6-fused human DISC1 C-region (residues 691-836) (domain or fragment, UniProt Q9NRI5 691-836, looked up, disrupted in schizophrenia 1 (DISC1), human, C-region, residues 691-836 of full-length human DISC1; Cloned in pET-15b; Used freshly prepared to represent the monomer, and after two months at 4 °C as oligomer/fibril, in SPR; also called MBP-C-region; MBP-C region; source: E. coli (DE3) C43, purified (Co2+-NTA, amylose column); not shown: MBP, N-terminal, kept; His6, N-terminal, kept) WEADLEACRLLIQSLQLQEARGSLSVEDERQMDDLEGAAPPIPPRLHSEDKRKTPLKVLEEWKTHLIPSLHCAGGEQKEESYILSAELGEKCEDIGKKLLYLEDQLHTAIHSHDEDLIQSLRRELQMVKETLQAMILQLQPAKEAG",Kd,NDE-like 1 (NDEL1) [6],28 µM
same,Kd,lissencephaly 1 (LIS1) [7],31 nM
same,Kd,NDE-like 1 (NDEL1) [8],14 µM
same,Kd,lissencephaly 1 (LIS1) [9],71 nM
same,Kd,NDE-like 1 (NDEL1) [10],20 µM
"His6-tagged human DISC1 C-region (residues 691-836) (domain or fragment, UniProt Q9NRI5 691-836, looked up, disrupted in schizophrenia 1 (DISC1), human, C-region, residues 691-836 of full-length human DISC1; Vector pESPRIT002; Theoretical mass of the tagged protein 19.4 kDa; for SPR it was incubated at 4 °C for two weeks (oligomer/fibril); also called His6-C-region; His-C-region; source: E. coli BL21 (DE3) pLysE T1R, purified (Co2+-NTA, Superdex 200 SEC); not shown: His6, N-terminal, kept) WEADLEACRLLIQSLQLQEARGSLSVEDERQMDDLEGAAPPIPPRLHSEDKRKTPLKVLEEWKTHLIPSLHCAGGEQKEESYILSAELGEKCEDIGKKLLYLEDQLHTAIHSHDEDLIQSLRRELQMVKETLQAMILQLQPAKEAG",Kd,lissencephaly 1 (LIS1) [7],31 nM
same,Kd,NDE-like 1 (NDEL1) [8],13 µM
